Measurements as given in article PMC11794430.

Molecular target: HA-tagged Mincle (macrophage-inducible C-type lectin, CLEC4E) (UniProt Q9ULY5)
Assay: MST

Chain of UniProt Q9ULY5 (Q9ULY5 whole entry): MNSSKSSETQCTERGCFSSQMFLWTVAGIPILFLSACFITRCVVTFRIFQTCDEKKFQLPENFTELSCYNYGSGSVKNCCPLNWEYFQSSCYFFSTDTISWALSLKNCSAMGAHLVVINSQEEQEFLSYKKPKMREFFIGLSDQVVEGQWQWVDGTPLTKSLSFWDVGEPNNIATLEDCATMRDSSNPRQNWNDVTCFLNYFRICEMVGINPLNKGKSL

Row | Kd [µM] | Substance
1 | 5.7 | Fucosylated haptoglobin purified from sepsis patients (from UniProt P00738 162-406; P00738 19-160) (natural protein)
2 | 22.9 | Haptoglobin purified from healthy controls (from UniProt P00738 162-406; P00738 19-160) (natural protein)
